Laboratory results as given in patent publication US20220298257A1 (ELPIS BIOPHARMACEUTICALS, published 2022).
Positions count from the first letter of the chain named.

T1: human CD22-Fc fusion protein (human, UniProt P20273 20-687, limits assumed)
T1 construct: also called recombinant CD22-Fc fusion protein; not shown: Fc part
T1 sequence (looked up): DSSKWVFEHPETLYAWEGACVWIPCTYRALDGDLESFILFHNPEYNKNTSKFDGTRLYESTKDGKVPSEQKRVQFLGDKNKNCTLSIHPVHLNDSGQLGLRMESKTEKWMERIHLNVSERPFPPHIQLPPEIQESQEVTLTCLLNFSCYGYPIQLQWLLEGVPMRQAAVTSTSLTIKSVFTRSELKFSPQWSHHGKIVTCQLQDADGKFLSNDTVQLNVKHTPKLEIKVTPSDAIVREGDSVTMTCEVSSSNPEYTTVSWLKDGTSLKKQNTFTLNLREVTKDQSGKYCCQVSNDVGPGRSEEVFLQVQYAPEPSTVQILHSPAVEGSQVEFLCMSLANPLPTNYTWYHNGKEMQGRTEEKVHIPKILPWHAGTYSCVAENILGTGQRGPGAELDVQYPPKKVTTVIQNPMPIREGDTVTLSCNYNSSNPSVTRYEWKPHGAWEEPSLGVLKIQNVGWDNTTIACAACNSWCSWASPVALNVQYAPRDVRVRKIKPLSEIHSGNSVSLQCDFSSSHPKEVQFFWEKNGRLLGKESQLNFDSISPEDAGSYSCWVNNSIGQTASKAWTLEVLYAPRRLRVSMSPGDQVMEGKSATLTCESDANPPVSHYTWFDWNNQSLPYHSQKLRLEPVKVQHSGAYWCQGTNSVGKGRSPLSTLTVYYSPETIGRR

T2: full-length human CD22 fused with flag and Myc tags at the C-terminus, on HEK293 or K562 cells (human, UniProt P20273 20-847)
T2 construct: whole, on cells; also called CD22/K562; CD22/HEK293; not shown: C-terminal flag and Myc tags of the pCMV6-Entry vector
T2 sequence (looked up): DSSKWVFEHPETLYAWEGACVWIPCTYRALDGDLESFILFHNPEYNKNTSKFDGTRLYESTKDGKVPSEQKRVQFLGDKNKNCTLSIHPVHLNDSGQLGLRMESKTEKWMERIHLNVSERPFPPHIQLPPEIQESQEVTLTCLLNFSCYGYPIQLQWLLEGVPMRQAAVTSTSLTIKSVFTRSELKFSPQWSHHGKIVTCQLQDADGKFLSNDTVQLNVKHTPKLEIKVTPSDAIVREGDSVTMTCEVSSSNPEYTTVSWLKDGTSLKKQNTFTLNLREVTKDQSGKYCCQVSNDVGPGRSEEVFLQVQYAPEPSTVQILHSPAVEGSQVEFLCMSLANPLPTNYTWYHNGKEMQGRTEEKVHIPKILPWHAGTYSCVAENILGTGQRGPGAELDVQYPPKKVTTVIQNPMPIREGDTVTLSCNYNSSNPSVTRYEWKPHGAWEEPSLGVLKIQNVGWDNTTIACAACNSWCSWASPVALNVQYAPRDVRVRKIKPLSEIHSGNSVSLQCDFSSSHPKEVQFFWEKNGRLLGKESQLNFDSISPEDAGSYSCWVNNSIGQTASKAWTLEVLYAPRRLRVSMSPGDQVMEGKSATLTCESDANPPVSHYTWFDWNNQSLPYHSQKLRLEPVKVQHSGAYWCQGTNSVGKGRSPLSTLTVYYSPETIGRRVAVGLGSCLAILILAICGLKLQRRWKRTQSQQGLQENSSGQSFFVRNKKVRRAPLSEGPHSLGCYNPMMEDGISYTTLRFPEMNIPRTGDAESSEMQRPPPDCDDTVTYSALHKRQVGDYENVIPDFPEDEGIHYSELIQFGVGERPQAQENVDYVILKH

B1: EP160-F04 scFv (scFv)
scFv: EVQLVQSGAEVKKPGASVKVSCKASGYTFTSYGISWVRQAPGQGLEWMGWISAYNGNTNYAQKLQGRVTMTTDTSTSTAYMELRSLKSDDTAVYYCAISIGAFDIWGQGTMVTVSSGGGGSGGGGSGGGGSEIVMTQSPATLSVSPGEEVTLSCRASQSVSSNLAWYQQRPGQAPRLLIYGASIKATDVPDRFSGGGSGTDFTLSISNLQSEDFAVYYCQQYHTWPPVTFGGGTKVEIK
notes: VH-VL orientation; not shown: C-terminal flag and 6xHIS tag
B2: EP97-B03 (IgG) (antibody, V domains shown)
VH: QLVQSGAEVKKPGASVKVSCKASGYTFSSYGITWVRQAPGQGLEWMGWISAYNGNTNYAQKFQGRVTLTTDTSTSIAYMELRSLTSDDTAVYYCATGGQEDYWGQGTLVTVSS
VL: not shown
B3: EP160-F10 (a single domain antibody) (VHH)
VHH: EVQLVESGGGVVQPGRSLRLSCVASGFTFRNYGMQWVRQTPDKGLEWVAVTAHDGTVQYYVDSVKGRFTISRDNSKDTLYLQMNSLRVADTAVYYCAKEATPRAADHFDYWGQGTLGTVSS
notes: Human VH-only single domain antibody from a human library (not a camelid VHH); not shown: C-terminal flag and 6xHIS tag
B4: M971 IgG antibody (antibody, V domains shown)
VH: QVQLQQSGPGLVKPSQTLSLTCAISGDSVSSNSAAWNWIRQSPSRGLEWLGRTYYRSWYNDYAVSVKSRITINPDTSKNQFSLQLNSVTPEDTAVYYCAREVTGDLEDAFDIWGQGTMVTVSS
VL: DIQMTQSPSSLSASVGDRVTITCRASQTIWSYLNWYQQRPGKAPNLLIYAASSLQSGVPSRFSGRGSGTDFTLTISSLQAEDFATYYCQQSYSIPQTFGQGTKLEIK
notes: Known fully human anti-CD22 antibody used as IgG; also called IgG M971
B5: EP160-G04 scFv (scFv)
scFv: QVQLVQSGAEVKKPGASVKVSCKASGYTFSSYGITWVRQAPGQGLEWMGWISAYNGNTNYAQKFQGRVTLTTDTSTSIAYMELRSLTSDDTAVYYCATGGQEDYWGQGTLVTVSSGGGGSGGGGSGGGGSEIVMTQSPATLSVSPGERATLSCRASQSVSSNLAWYQQKPGQAPRLLIYDASTRATGIPARFSGSGSGTEFTLTISSLQSEDFAVYYCQQYHNWAPLTFGGGTKVGIK
notes: as for B1
B6: EP160-D02 (IgG) (antibody, V domains shown)
VH: QVQLVQSGAEVKKPGASVKVSCKASGYTFTSYGISWVRQAPGQGLEWMGWISAYNGNTNYAQKLQGRVTMTTDTSTSTAYMELRSLRSDDTAVYYCARDPLEPLESDYWGQGTLVTVSS
VL: EIVMTQSPATLSVSPGEGVTLSCRASQSVSSNLAWYQQRPGQAPRLLIYGASIKATDVPDRFSGGGSGTDFSLSITNLQSEDFAVYYCQQYHTWPPVTFGGGTKVEIK
notes: also called EP160-D2 (IgG)
B7: EP160-H02 (IgG) (antibody, V domains shown)
VH: QVQLVQSGAEVKKPGASVKVSCKASGYTFTSYGISWVRQAPGQGLEWMGGIIAYNGNTNYAQKLQGRVTMTTDTSTSTAYMELRSLRSDDTAVYYCARDPPEYSSSAGTDYWGQGTLVTVSS
VL: B6 VL with S72T, P95S
B8: EP160-D02 scFv (scFv)
scFv: QVQLVQSGAEVKKPGASVKVSCKASGYTFTSYGISWVRQAPGQGLEWMGWISAYNGNTNYAQKLQGRVTMTTDTSTSTAYMELRSLRSDDTAVYYCARDPLEPLESDYWGQGTLVTVSSGGGGSGGGGSGGGGSEIVMTQSPATLSVSPGEGVTLSCRASQSVSSNLAWYQQRPGQAPRLLIYGASIKATDVPDRFSGGGSGTDFSLSITNLQSEDFAVYYCQQYHTWPPVTFGGGTKVEIK
notes: VH-VL orientation; made in E. coli, His-tag purified; also called EP160-D2; not shown: C-terminal flag and 6xHIS tag

Tests used:
[1] = target: T1, human CD22-Fc fusion protein; assay: SPR Biacore T200; CD22-Fc captured on Protein G chip, scFv as analyte;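 also: run in 1×HBST buffer, with the response of reference flow cell 1 subtracted from the CD22 capture cell and kinetics fitted in Biacore T200 evaluation software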
[2] = target: T2, full-length human CD22 fused with flag …; assay: FACS, scFv titrated on CD22-expressing cells, anti-His Alexa 488
[3] = target: T2, full-length human CD22 fused with flag …; assay: cell-based or functional assay
[4] = target: T2, full-length human CD22 fused with flag …; assay: cell-based or functional assay; remark: listed apart in the source
[5] = target: T2, full-length human CD22 fused with flag …; assay: FACS, antibody fragment titrated on CD22-expressing cells, anti-His Alexa 488
[6] = target: T2, full-length human CD22 fused with flag …; assay: ELISA, IgG format; antigen format not described
[7] = target: T3, CD123 on the surface of CHO-K1 cells (UniProt P26951 19-378); assay: FACS on CHO-K1 cells expressing CD123, anti-hFc Alexa 488
T3 construct: whole, on cells; Negative control cells that express CD123 but not CD22; also called CHOK1-CD123; cell surface CD123

[8] = target: T2, full-length human CD22 fused with flag …; assay: FACS on CD22-expressing cells (HEK293-CD22 by the table's head), anti-hFc Alexa 488
[9] = target: T2, full-length human CD22 fused with flag …; assay: FACS on CD22 K562 cells, competitor 0.77 nM BL22
[10] = target: T2, full-length human CD22 fused with flag …; assay: FACS on CD22 K562 cells, competitor 0.175 nM BL22
[11] = target: T2, full-length human CD22 fused with flag …; assay: FACS on CD22 K562 cells, competitor 1.77 nM M971
[12] = target: T2, full-length human CD22 fused with flag …; assay: FACS on CD22 K562 cells, scFv alone (BL22 binning experiment)
[13] = target: T2, full-length human CD22 fused with flag …; assay: FACS on CD22 K562 cells, scFv alone (M971 binning experiment)
[14] = target: T2, full-length human CD22 fused with flag …; assay: FACS on CD22 K562 cells, competitor 5.13 nM M971

T3 sequence (P26951 19-378 limits assumed): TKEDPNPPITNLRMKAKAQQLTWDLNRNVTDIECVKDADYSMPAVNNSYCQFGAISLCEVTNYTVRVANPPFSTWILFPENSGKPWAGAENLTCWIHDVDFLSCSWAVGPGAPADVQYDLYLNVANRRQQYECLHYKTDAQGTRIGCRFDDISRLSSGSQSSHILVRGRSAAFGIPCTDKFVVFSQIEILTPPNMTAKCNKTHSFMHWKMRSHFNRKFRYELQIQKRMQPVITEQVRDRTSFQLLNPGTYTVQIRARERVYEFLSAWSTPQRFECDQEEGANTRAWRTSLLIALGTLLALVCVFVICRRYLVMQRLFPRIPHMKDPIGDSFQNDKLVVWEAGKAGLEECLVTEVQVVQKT

Row | Binder | Kd [1] | koff [1] | kon [1] | EC50 [2] | EC50 in ADCC assay (Promega ADCC Bioreporter, CD22/HEK293 target cells) [3] | T½ (Hour) of internalization, CD22/HEK293 cells, pHrodo secondary [4] | further results
1 | B1 | 5.89 nM | 0.000283 s⁻¹ | 40500 M⁻¹ s⁻¹ | 2.79 nM |  |  | 
2 | B2 |  |  |  |  | 3.71 nM | 5.26 Hour | 
3 | B3 |  |  |  |  |  |  | EC50 [5]: 9 nM
4 | B4 |  |  |  |  |  | 6.07 Hour | EC50 [6]: 0.059 nM
5 | B5 | 0.322 nM | 4.03e-05 s⁻¹ | 125000 M⁻¹ s⁻¹ | 1.1 nM |  |  | 
6 | B6 |  |  |  |  | 1.95 nM | 5.06 Hour | binding result [7]: no binding; EC50 [8]: 0.101 nM; EC50 [6]: 0.039 nM
7 | B7 |  |  |  |  | ~73.8 nM |  | 
8 | B8 | 0.0194 nM | 0.000107 s⁻¹ | 5.51e+06 M⁻¹ s⁻¹ | 0.24 nM |  |  | IC50 [9]: 0.0898 nM; IC50 [10]: 0.0811 nM; EC50 [11]: 0.0946 nM; IC50 [12]: 0.0822 nM; EC50 [13]: 0.125 nM; EC50 [14]: 0.144 nM
